Experimental findings from patent publication JP2020075879A (dated 2020) are described below.

The experiment deals with T1, C末端FLAGタグを有する切り捨てられたヒトRNF43 (Ba/F3 E12細胞に発現) (human, UniProt Q68DV7 24-237).
T1 construct: also called E12細胞株; Ba/F3 E12トランスフェクタント
T1 sequence: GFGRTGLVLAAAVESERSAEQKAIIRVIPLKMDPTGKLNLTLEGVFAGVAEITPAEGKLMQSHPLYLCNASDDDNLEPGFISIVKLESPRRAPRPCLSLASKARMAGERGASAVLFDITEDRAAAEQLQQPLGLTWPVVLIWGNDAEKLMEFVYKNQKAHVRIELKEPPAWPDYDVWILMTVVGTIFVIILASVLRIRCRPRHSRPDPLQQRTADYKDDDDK
Description: flow cytometry on Ba/F3 E12 cells, antibody at 2.5 microg/ml, PE anti-human IgG detection.

B1: 抗RNF43単一特異性抗体RNN0802 (antibody, human IgG1, kappa, N297A, V domains shown)
VH: QSLEESGGRLVTPGGSLTLTCRVSGFSLSNYDMSWVRQAPGKGLEWIGFITSSGRTYYASWAKGRFTISKTSTMVDLKITSPTTEDTATYFCARDFENDDSAMWGPGTLVTVSS
VL: DVVMTQTPSSVSAAVGGTVTINCQASQSVYDNNLAWYQQKPGQPPKLLIYKASKLASGVPSRFKGSGSGTEFTLTISDLECADAATYYCQSNYYSNTNGLGSFGGGTKVEIKR
notes: also called 単一特異的RNN0802; 単一特異的RNN0802(二価IgG)
With B1, the binding result is listed as “binds”.
